Molecular target: T1, α-catenin (cleaved from GST–α-catenin), P35221
T1 chain: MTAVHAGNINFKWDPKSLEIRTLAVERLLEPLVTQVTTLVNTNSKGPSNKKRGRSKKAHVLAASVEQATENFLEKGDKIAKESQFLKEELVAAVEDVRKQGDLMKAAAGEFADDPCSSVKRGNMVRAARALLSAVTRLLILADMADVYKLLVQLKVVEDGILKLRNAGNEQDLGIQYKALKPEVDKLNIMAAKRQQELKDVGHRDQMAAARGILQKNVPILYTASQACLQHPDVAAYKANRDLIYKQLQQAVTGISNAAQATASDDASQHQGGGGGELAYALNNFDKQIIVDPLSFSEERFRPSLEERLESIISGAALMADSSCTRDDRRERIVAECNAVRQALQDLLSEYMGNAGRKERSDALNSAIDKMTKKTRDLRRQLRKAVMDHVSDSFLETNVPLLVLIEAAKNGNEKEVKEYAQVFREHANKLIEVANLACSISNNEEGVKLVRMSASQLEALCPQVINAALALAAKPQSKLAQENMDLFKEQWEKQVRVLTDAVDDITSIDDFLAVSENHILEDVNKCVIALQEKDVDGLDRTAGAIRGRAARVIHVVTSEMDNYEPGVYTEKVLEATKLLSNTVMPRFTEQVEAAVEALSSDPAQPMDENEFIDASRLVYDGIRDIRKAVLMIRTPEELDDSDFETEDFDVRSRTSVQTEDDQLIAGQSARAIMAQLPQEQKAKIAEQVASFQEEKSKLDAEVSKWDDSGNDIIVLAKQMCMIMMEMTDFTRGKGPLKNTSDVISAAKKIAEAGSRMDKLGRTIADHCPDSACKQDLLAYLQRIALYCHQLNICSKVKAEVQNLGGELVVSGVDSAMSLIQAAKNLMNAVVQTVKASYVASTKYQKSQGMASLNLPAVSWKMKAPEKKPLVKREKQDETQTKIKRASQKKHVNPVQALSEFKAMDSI
Assay: GST pull-down (in vitro reconstitution of cadherin complex), blot quantification
Details: chain shown with the change;; parent: est. 1.0; read off a plot

ratio to parent: 1.1 fold change
B1: GST–β-catenin WT, P35222 S675D (protein)
chain: MATQADLMELDMAMEPDRKAAVSHWQQQSYLDSGIHSGATTTAPSLSGKGNPEEEDVDTSQVLYEWEQGFSQSFTQEQVADIDGQYAMTRAQRVRAAMFPETLDEGMQIPSTQFDAAHPTNVQRLAEPSQMLKHAVVNLINYQDDAELATRAIPELTKLLNDEDQVVVNKAAVMVHQLSKKEASRHAIMRSPQMVSAIVRTMQNTNDVETARCTAGTLHNLSHHREGLLAIFKSGGIPALVKMLGSPVDSVLFYAITTLHNLLLHQEGAKMAVRLAGGLQKMVALLNKTNVKFLAITTDCLQILAYGNQESKLIILASGGPQALVNIMRTYTYEKLLWTTSRVLKVLSVCSSNKPAIVEAGGMQALGLHLTDPSQRLVQNCLWTLRNLSDAATKQEGMEGLLGTLVQLLGSDDINVVTCAAGILSNLTCNNYKNKMMVCQVGGIEALVRTVLRAGDREDITEPAICALRHLTSRHQEAEMAQNAVRLHYGLPVVVKLLHPPSHWPLIKATVGLIRNLALCPANHAPLREQGAIPRLVQLLVRAHQDTQRRTSMGGTQQQFVEGVRMEEIVEGCTGALHILARDVHNRIVIRGLNTIPLFVQLLYSPIENIQRVAAGVLCELAQDKEAAEAIEAEGATAPLTELLHSRNEGVATYAAAVLFRMSEDKPQDYKKRLDVELTSSLFRTEPMAWNETADLGLDIGAQGEPLGYRQDDPSYRSFHSGGYGQDALGMDPMMEHEMGGHHPGADYPVDGLPDLGHAQDLMDGLPPGDSNQLAWFDTDL

Source: article PMC8091128
